Experiments:
[1] = target: T1, Ins 5 type mutant CALR protein on UT-7/TPO CALR Ins 5 cells (UniProt P27797 18-417); test: cell-based or functional assay
T1 sequence (looked up): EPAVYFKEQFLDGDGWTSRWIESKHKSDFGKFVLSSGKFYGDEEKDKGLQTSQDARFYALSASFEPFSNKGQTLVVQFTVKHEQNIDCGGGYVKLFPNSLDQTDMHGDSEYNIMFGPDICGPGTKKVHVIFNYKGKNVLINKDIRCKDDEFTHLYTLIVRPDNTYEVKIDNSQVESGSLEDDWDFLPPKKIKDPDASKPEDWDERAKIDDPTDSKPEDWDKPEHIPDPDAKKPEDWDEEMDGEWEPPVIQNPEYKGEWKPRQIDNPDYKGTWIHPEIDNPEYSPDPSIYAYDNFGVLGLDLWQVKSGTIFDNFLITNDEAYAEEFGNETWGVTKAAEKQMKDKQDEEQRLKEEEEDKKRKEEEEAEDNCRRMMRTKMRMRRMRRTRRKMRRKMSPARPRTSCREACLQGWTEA

[2] = target: T2, protein having an Fc region and a His-tag added to the N-terminus of SEQ ID NO: 1; test: BLItz biolayer interferometry, Fc/His-SEQ ID NO: 1 protein on the biosensor
T2 construct: also called mutant CALR protein (antigen of the BLItz measurement); not shown: Fc region and His-tag at the N-terminus
T2 chain: RRMMRTKMRMRRM
Method in brief: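 The Fc/His-tagged protein was loaded at 0.1 mg/mL onto Anti-Penta-HIS or Protein A biosensors. Antibodies were run at 500, 100 and 50 nM by biolayer interferometry, and the dissociation constant was derived from these binding curves.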

[3] = target: T1, Ins 5 type mutant CALR protein on …; test: cell-based or functional assay; remark: listed apart in the source

Kd [2]	Binder	EC50 of cytotoxic activity (pM) [1]	EC50 of cytotoxic activity (calcein release, T-LAK effector cells) [3]
< 1 pM	Antibody 101 (bispecific antibody, human IgG1, kappa, L234A L235A) chain 1: not shown chain 2: DIQMTQSPSFVSASVGDRVTITCLASEDIYSYLAWYQQKPGKAPKLLIFAANRLQDGVPSRFSGGGSGTGFTLTISSLQPEDFATYFCLQGSKFPYTFGQGTKLEINRTVAAPSVFIFPPSDEQLKSGTASVVCLLNNFYPREAKVQWKVDNALQSGNSQESVTEQDSKDSTYSLSSTLTLSKADYEKHKVYACEVTHQGLSSPVTKSFNRGECGGGGSGGGGSQVQLVQSGGGVVQPGRSLRLSCKASGYTFTRYTMHWVRQAPGKGLEWIGYINPSRGYTNYNQKVKDRFTISRDNSKNTAFLQMDSLRPEDTGVYFCARYYDDHYSLDYWGQGTPVTVSSGGGGSGGGGSGGGGSDIQMTQSPSSLSASVGDRVTITCSASSSVSYMNWYQQTPGKAPKRWIYDTSKLASGVPSRFSGSGSGTDYTFTISSLQPEDIATYYCQQWSSNPFTFGQGTKLQITR	1660 pM	–
< 1 pM	Antibody 102 (bispecific antibody, human IgG1, kappa, L234A L235A) chain 1: not shown chain 2: DIQMTQSPSFVSASVGDRVTITCLASEDIYSYLAWYQQKPGKAPKLLIFAANRLQSGVPSRFSGGGSGTGFTLTISSLQPEDFATYFCLQGSKFPYTFGQGTKLEINRTVAAPSVFIFPPSDEQLKSGTASVVCLLNNFYPREAKVQWKVDNALQSGNSQESVTEQDSKDSTYSLSSTLTLSKADYEKHKVYACEVTHQGLSSPVTKSFNRGECGGGGSGGGGSQVQLVQSGGGVVQPGRSLRLSCKASGYTFTRYTMHWVRQAPGKGLEWIGYINPSRGYTNYNQKVKDRFTISRDNSKNTAFLQMDSLRPEDTGVYFCARYYDDHYSLDYWGQGTPVTVSSGGGGSGGGGSGGGGSDIQMTQSPSSLSASVGDRVTITCSASSSVSYMNWYQQTPGKAPKRWIYDTSKLASGVPSRFSGSGSGTDYTFTISSLQPEDIATYYCQQWSSNPFTFGQGTKLQITR	850 pM	–
< 1 pM	Antibody 100 (bispecific antibody, human IgG1, kappa, L234A L235A) chain 1: not shown chain 2: DIQMTQSPSFVSASVGDRVTITCLASEDIYSYLAWYQQKPGKAPKLLIFAANRLQDGVPSRFSGGGSGTGFTLTISSLQPEDFATYFCLQGSKFPYTFGQGTKLEINRTVAAPSVFIFPPSDEQLKSGTASVVCLLNNFYPREAKVQWKVDNALQSGNSQESVTEQDSKDSTYSLSSTLTLSKADYEKHKVYACEVTHQGLSSPVTKSFNRGECGGGGSGGGGSQVQLVQSGGGVVQPGRSLRLSCKASGYTFTRYTMHWVRQAPGKGLEWIGYINPSRGYTNYNQKVKDRFTISRDNSKNTAFLQMDSLRPEDTGVYFCARYYDDHYSLDYWGQGTPVTVSSGGGGSGGGGSGGGGSDIQMTQSPSSLSASVGDRVTITCSASSSVSYMNWYQQTPGKAPKRWIYDTSKLASGVPSRFSGSGSGTDYTFTISSLQPEDIATYYCQQWSSNPFTFGQGTKLQITR	1080 pM	–
< 1 pM	Antibody 86 (bispecific antibody) chain 1: not shown chain 2: DIQMTQSPSSLSASVGDRVTITCLASEDIYSYLAWYQQKPGKAPKLLIFAANRLQSGVPSRFSGSGSGTDFTLTISSLQPEDFATYYCLQGSKFPYTFGPGTKVDIKRTVAAPSVFIFPPSDEQLKSGTASVVCLLNNFYPREAKVQWKVDNALQSGNSQESVTEQDSKDSTYSLSSTLTLSKADYEKHKVYACEVTHQGLSSPVTKSFNRGEC	58 pM	–
< 1 pM	Antibody 92 (bispecific antibody) chain 1: not shown chain 2: DIQMTQSPSSLSASVGDRVTITCLASEDIYSYLAWYQQKPGKAPKLLIFAANRLQSGVPSRFSGSGSGTDFTLTISSLQPEDFATYYCLQGSKFPYTFGPGTKVDIKRTVAAPSVFIFPPSDEQLKSGTASVVCLLNNFYPREAKVQWKVDNALQSGNSQESVTEQDSKDSTYSLSSTLTLSKADYEKHKVYACEVTHQGLSSPVTKSFNRGEC	47 pM	–
< 1 pM	Antibody 91 (bispecific antibody) chain 1: not shown chain 2: DIQMTQSPSSLSASVGDRVTITCLASEDIYSYLAWYQQKPGKAPKLLIFAANRLQSGVPSRFSGSGSGTDFTLTISSLQPEDFATYYCLQGSKFPYTFGPGTKVDIKRTVAAPSVFIFPPSDEQLKSGTASVVCLLNNFYPREAKVQWKVDNALQSGNSQESVTEQDSKDSTYSLSSTLTLSKADYEKHKVYACEVTHQGLSSPVTKSFNRGEC	230 pM	–
< 1 pM	Antibody 89 (bispecific antibody) chain 1: not shown chain 2: DIQMTQSPSSLSASVGDRVTITCLASEDIYSYLAWYQQKPGKAPKLLIFAANRLQSGVPSRFSGSGSGTDFTLTISSLQPEDFATYYCLQGSKFPYTFGPGTKVDIKRTVAAPSVFIFPPSDEQLKSGTASVVCLLNNFYPREAKVQWKVDNALQSGNSQESVTEQDSKDSTYSLSSTLTLSKADYEKHKVYACEVTHQGLSSPVTKSFNRGEC	77 pM	–
< 1 pM	Antibody 88 (bispecific antibody) chain 1: not shown chain 2: DIQMTQSPSSLSASVGDRVTITCLASEDIYSYLAWYQQKPGKAPKLLIFAANRLQSGVPSRFSGSGSGTDFTLTISSLQPEDFATYYCLQGSKFPYTFGPGTKVDIKRTVAAPSVFIFPPSDEQLKSGTASVVCLLNNFYPREAKVQWKVDNALQSGNSQESVTEQDSKDSTYSLSSTLTLSKADYEKHKVYACEVTHQGLSSPVTKSFNRGEC	28 pM	–
< 1 pM	Antibody 94 (bispecific antibody) chain 1: not shown chain 2: DIQMTQSPSSLSASVGDRVTITCLASEDIYSYLAWYQQKPGKAPKLLIFAANRLQDGVPSRFSGSGSGTDFTLTISSLQPEDFATYYCLQGSKFPYTFGPGTKVDIKRTVAAPSVFIFPPSDEQLKSGTASVVCLLNNFYPREAKVQWKVDNALQSGNSQESVTEQDSKDSTYSLSSTLTLSKADYEKHKVYACEVTHQGLSSPVTKSFNRGEC	32 pM	–
< 1 pM	Antibody 90 (bispecific antibody) chain 1: not shown chain 2: DIQMTQSPSSLSASVGDRVTITCLASEDIYSYLAWYQQKPGKAPKLLIFAANRLQSGVPSRFSGSGSGTDFTLTISSLQPEDFATYYCLQGSKFPYTFGPGTKVDIKRTVAAPSVFIFPPSDEQLKSGTASVVCLLNNFYPREAKVQWKVDNALQSGNSQESVTEQDSKDSTYSLSSTLTLSKADYEKHKVYACEVTHQGLSSPVTKSFNRGEC	269 pM	–
6680 pM	Antibody 15 (bispecific antibody, human IgG1, kappa, L234A L235A, B3 half IgG hetero-associated by knob-into-hole with hOKT3 scFv-Fc) heavy: not shown light: DIQMTQSPASLSASLGETVSIECLASEDIYSYLAWYQQKPGKSPQLLIFAANRLQDGVPSRFSGSGSGTQFSLKISGMQPEDEGDYFCLQGSKFPYTFGPGTKLELNRTVAAPSVFIFPPSDEQLKSGTASVVCLLNNFYPREAKVQWKVDNALQSGNSQESVTEQDSKDSTYSLSSTLTLSKADYEKHKVYACEVTHQGLSSPVTKSFNRGEC QVQLVQSGGGVVQPGRSLRLSCKASGYTFTRYTMHWVRQAPGKGLEWIGYINPSRGYTNYNQKVKDRFTISRDNSKNTAFLQMDSLRPEDTGVYFCARYYDDHYSLDYWGQGTPVTVSSGGGGSGGGGSGGGGSDIQMTQSPSSLSASVGDRVTITCSASSSVSYMNWYQQTPGKAPKRWIYDTSKLASGVPSRFSGSGSGTDYTFTISSLQPEDIATYYCQQWSSNPFTFGQGTKLQITREPKSCDKTHTCPPCPAPEAAGGPSVFLFPPKPKDTLMISRTPEVTCVVVDVSHEDPEVKFNWYVDGVEVHNAKTKPREEQYNSTYRVVSVLTVLHQDWLNGKEYKCKVSNKALPAPIEKTISKAKGQPREPQVCTLPPSREEMTKNQVSLSCAVKGFYPSDIAVEWESNGQPENNYKTTPPVLDSDGSFFLVSKLTVDKSRWQQGNVFSCSVMHEALHNHYTQKSLSLSPGK	–	1290 pM

— patent US20240092890A1 (JUNTENDO EDUCATIONAL FOUNDATION, published 2024)
